Results taken from patent US20010041790A1.

Assays:
murine PrPsen (mouse) = murine PrPsen (mouse) (UniProt P04925); test: cell-based or functional assay
[1] = molecular target: 35S-labeled hamster PrPsen, glycophosphoinositol-negative form (35S-HaPrPsen) (Syrian golden hamster) (UniProt P04273); test: cell-based or functional assay

Row | Substance | IC50 of the conversion reaction [1] [µM] | other results
1 | MoP109-141 (peptide) |  | IC50 of murine PrP conversion (murine PrPsen (mouse)): 50 µM; IC50 of the hamster PrP conversion reaction [1]: 70 µM
2 | hamster PrP synthetic peptide P119-136 | < 100 | 
3 | hamster PrP synthetic peptide P119-128 | 550 | 
4 | hamster PrP synthetic peptide P117-141 | 80 | 
5 | Mo3F4P109-141 (peptide) |  | IC50 of murine PrP conversion (murine PrPsen (mouse)): 50 µM
6 | hamster PrP synthetic peptide P113-141 |  | IC50 of the in vitro conversion [1]: 40 µM
7 | hamster PrP synthetic peptide P119-141 | 120 | 
8 | hamster PrP synthetic peptide P115-141 | 40 | 
